This passage reports OD450nm average value, CPE number and neutralizing titer (virus neutralization test, CPE on CRFK cells) (titer (1:x dilution)) results from patent US20230295272A1.

Assay [1] has as its target canine parvovirus (CPV), CPV-2c TS02 strain, purified virus (canine parvovirus CPV-2c (TS02 strain)). As to the kind of experiment: indirect ELISA, purified CPV coated at 10 ug/mL, purified nanobody diluted 1:100, anti-His-HRP. For orientation: In an ELISA, binding on a coated surface is turned into a signal by an enzyme label.
Assay [2] has the same target. As to the kind of experiment: indirect ELISA, purified CPV coated at 10 ug/mL, purified nanobody diluted 1:1,000, anti-His-HRP.
Assay [3] has the same target. As to the kind of experiment: indirect ELISA, purified CPV coated at 10 ug/mL, purified nanobody diluted 1:10, anti-His-HRP.
Assay [4] has the same target. Kind of assay: cell-based or functional assay.
Assay [5] shares this target. Kind of assay: indirect ELISA, purified CPV coated at 10 ug/mL, purified nanobody diluted 1:10,000, anti-His-HRP.

B1: canine parvovirus (CPV) nanobody CPV-VHH-E3 (VHH)
VHH: QLQLVESGGGSVQPGGSLRLSCAASGFTLDFYRVGWFRQAPGKERQGVACIGSAGDRTFYVDSVKGRFTISKDNTKNTVYLQMNSLKPEDTAVYYCAAVLSPRITSVQAMCTHHGEGFDYWGQGTQVTVSS
With B1, the OD450nm average value in assay [1] came out at 2.6 OD450nm; in assay [2] it was 2.24 OD450nm; in assay [3], 2.81 OD450nm; in assay [5], 0.17 OD450nm. Besides, the CPE number at antibody dilution 1:10 (of 3 wells with CPE) in assay [4] worked out at 3. Also, in assay [4], the neutralizing titer (virus neutralization test, CPE on CRFK cells) (titer (1:x dilution)) was less than 10.
